US20260061032A1 (GI INNOVATION, published 2026)

T1: membrane-bound human CD73 (human, UniProt P21589 27-549)
T1 sequence: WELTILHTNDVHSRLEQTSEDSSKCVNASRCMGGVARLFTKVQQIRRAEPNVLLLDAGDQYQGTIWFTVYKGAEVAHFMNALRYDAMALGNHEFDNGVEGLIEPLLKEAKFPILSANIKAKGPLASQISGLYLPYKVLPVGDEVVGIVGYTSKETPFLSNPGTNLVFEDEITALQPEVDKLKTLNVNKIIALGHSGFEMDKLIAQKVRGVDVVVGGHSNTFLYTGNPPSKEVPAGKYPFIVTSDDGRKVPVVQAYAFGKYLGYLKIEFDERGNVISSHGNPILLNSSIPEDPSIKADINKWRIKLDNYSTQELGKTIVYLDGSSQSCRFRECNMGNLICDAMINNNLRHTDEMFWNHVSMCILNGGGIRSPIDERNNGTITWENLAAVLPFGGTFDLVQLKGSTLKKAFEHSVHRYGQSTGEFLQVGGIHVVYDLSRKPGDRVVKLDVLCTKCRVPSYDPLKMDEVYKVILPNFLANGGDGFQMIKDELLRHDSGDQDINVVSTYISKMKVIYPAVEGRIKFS

T2: hCD73 (human, UniProt P21589 27-549, limits assumed)
T2 sequence: T1 sequence

T3: hIL-2Rβ (human, UniProt P14784 27-239)
T3 construct: also called hIL-2RB
T3 sequence (looked up): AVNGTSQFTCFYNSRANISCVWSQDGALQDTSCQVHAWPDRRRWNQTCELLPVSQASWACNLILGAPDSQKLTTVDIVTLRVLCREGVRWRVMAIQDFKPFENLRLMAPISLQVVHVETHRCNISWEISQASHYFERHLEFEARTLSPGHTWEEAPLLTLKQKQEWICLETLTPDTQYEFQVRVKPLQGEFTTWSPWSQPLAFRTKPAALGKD

T4: mCD73 (UniProt Q61503 29-551, limits assumed)
T4 construct: Species told only by the prefix 'm'
T4 sequence (looked up): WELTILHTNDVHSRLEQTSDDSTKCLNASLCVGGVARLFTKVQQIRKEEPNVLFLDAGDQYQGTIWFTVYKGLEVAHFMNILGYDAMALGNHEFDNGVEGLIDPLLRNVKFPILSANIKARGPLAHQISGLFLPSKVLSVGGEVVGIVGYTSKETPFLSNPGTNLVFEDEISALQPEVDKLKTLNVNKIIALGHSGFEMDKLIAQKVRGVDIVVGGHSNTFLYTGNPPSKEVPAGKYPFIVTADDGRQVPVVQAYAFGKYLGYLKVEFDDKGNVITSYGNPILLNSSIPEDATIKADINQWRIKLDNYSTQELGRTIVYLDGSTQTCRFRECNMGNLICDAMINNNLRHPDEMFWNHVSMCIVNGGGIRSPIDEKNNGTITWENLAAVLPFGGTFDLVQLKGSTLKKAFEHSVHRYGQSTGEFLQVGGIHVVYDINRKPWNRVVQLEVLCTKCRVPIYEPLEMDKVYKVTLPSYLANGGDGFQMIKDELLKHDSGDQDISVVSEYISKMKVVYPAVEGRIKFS

B1: GI-108A1 (AHP04167) (Anti-CD73 sdAb-hIgG4 Fc-hIL2v3 fusion protein dimer) (Fc fusion)
chain: EVQLVESGGGLVQAGGSLRLSCVVSGRTFSNYHMGWFRQAPGKEREFVAVIGRSGGPTYYADSVKGRFTISRDNAKNTVYLQMNSLKPEDTAVYYCAGDWRNSDSPSKLKPVYDYWGQGTQVTVSSGGGGSAESKYGPPCPPCPAPEAAGGPSVFLFPPKPKDQLMISRTPEVTCVVVDVSQEDPEVQFNWYVDGVEVHNAKTKPREEQFNSTYRVVSVLTVLHQDWLNGKEYKCKVSNKGLPSSIEKTISKAKGQPREPQVYTLPPSQEEMTKNQVSLTCLVKGFYPSDIAVEWESNGQPENNYKTTPPVLDSDGSFFLYSRLTVDKSRWQEGNVFSCSVLHEALHNHYTQKSLSLSLGGGGGSGGGGSGGGGSAPTSSSTKKTQLQLEHLLLDLQMILNGINNYKNPKLTAMLTAKFYMPKKATELKHLQCLERELKPLEEVLNLAQSKNFHLRPRDLISNINVIVLELKGSETTFMCEYADETATIVEFLNRWITFCQSIISTLT
notes: Homodimer through hinge cysteines
B2: GI-108A1 (AHF10240) (Anti-CD73 sdAb-hIgG4 Fc-hIL2v3 fusion protein dimer) (Fc fusion)
chain: EVQLVESGGGVVQTGGSLRLSCAASGRTFTHLAMGWFRQAPGKEREFVAAISNSGAGTQFADSVKGRFTISRDNAKNTVYLQMNSLKPEDTAVYYCAADWGTRDSPSKLNAVYDYWGRGTQVTVSSGGGGSAESKYGPPCPPCPAPEAAGGPSVFLFPPKPKDQLMISRTPEVTCVVVDVSQEDPEVQFNWYVDGVEVHNAKTKPREEQFNSTYRVVSVLTVLHQDWLNGKEYKCKVSNKGLPSSIEKTISKAKGQPREPQVYTLPPSQEEMTKNQVSLTCLVKGFYPSDIAVEWESNGQPENNYKTTPPVLDSDGSFFLYSRLTVDKSRWQEGNVFSCSVLHEALHNHYTQKSLSLSLGGGGGSGGGGSGGGGSAPTSSSTKKTQLQLEHLLLDLQMILNGINNYKNPKLTAMLTAKFYMPKKATELKHLQCLERELKPLEEVLNLAQSKNFHLRPRDLISNINVIVLELKGSETTFMCEYADETATIVEFLNRWITFCQSIISTLT
notes: as for B1
B3: GI-108B1 (Anti-CD73 Ab-hIgG4 Fc-hIL2v3 fusion protein dimer) (antibody)
heavy: QVQLVQSGAEVKKPGSSVKVSCKFSGGSFTSYSFSWVRQAPGQGLEWMGRIIPVLTTTDYAQKFRDRVTITADESTSTAYMELSGLRSEDTAVYYCASGLKKNWYFDLWGRGALITVSSASTKGPSVFPLAPCSRSTSESTAALGCLVKDYFPEPVTVSWNSGALTSGVHTFPAVLQSSGLYSLSSVVTVPSSSLGTKTYTCNVDHKPSNTKVDKRVESKYGPPCPPCPAPEAAGGPSVFLFPPKPKDQLMISRTPEVTCVVVDVSQEDPEVQFNWYVDGVEVHNAKTKPREEQFNSTYRVVSVLTVLHQDWLNGKEYKCKVSNKGLPSSIEKTISKAKGQPREPQVYTLPPSQEEMTKNQVSLTCLVKGFYPSDIAVEWESNGQPENNYKTTPPVLDSDGSFFLYSRLTVDKSRWQEGNVFSCSVLHEALHNHYTQKSLSLSLGGGGGSGGGGSAPTSSSTKKTQLQLEHLLLDLQMILNGINNYKNPKLTAMLTAKFYMPKKATELKHLQCLERELKPLEEVLNLAQSKNFHLRPRDLISNINVIVLELKGSETTFMCEYADETATIVEFLNRWITFCQSIISTLT
light: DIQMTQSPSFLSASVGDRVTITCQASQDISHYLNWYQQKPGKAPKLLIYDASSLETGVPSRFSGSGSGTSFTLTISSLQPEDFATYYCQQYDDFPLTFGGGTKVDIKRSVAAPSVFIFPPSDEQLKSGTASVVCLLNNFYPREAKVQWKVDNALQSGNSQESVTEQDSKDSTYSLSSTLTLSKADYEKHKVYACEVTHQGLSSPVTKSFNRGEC
notes: IgG4 anti-CD73 antibody with the IL-2 variant fused to the C-terminus of each heavy chain; expressed in CHO cells, purified as a dimer

What was measured:
[1] = target: T1, membrane-bound human CD73; assay: cell-based or functional assay
[2] = target: T2, hCD73; assay: cell-based or functional assay
[3] = target: T3, hIL-2Rβ; assay: SPR, Biacore T200; biotinylated CD73 on SA chip, binder bound to CD73, hIL-2Rβ as analyte
Protocol: (§1) To quantitatively analyze the binding affinities to CD73 and IL-2 receptors of […] and GI-108B1, in which the anti-CD73 antibody that specifically binds to CD73 was linked to the IL-2 variant, and Aldesleukin (trade name: PROLEUKIN®, Novartis), the binding affinities were measured using SPR (surface plasmon resonance). Using a BIACORE™ T200 instrument (Cytiva), the binding affinities of GI-108A1 (AHF10240), GI-108A1 (AHP04167) and GI-108B1 to hCD73, cyCD73, mCD73, hIL-2Rα, hIL-2Rβ, and hIL-2Rβγ were analyzed. Oleclumab (Astrazeneca), produced on order from Ybiologics, Inc., was used as a control.
To analyze the binding affinity to hIL-2Ra, hIL-2Ra was […] immobilized on Sensor Chip CM5 using a His capture kit (Cytiva, USA). Each of GI-108A1 (AHF10240), GI-108A1 (AHP04167), GI-108B1 and PROLEUKIN®, diluted in HBS-EP+ buffer, was then applied for 1 minute, followed by analysis of association and dissociation. In addition, the binding affinities to hIL-2RB and hIL-2Rβγ were measured by a three-step analysis method including treating Sensor Chip SA (Cytiva, USA) with biotinylated CD73, and then binding each of GI-108A1 (AHF10240), GI-108A1 (AHP04167), GI-108B1 and PROLEUKIN® to CD73, followed by treatment with each of hIL-2RB and hIL-2Rβγ diluted in HBS-P+ buffer (Cytiva, USA). For hIL-2RB, association was performed for 1 minute and dissociation for 1 minute, and for hIL-2Rβγ, association was performed for 5 minutes and dissociation for 2 hours at each concentration, in a single cycle kinetics analysis. Each sensorgram was normalized and subtracted compared to a blank cell to calculate affinity.

[4] = target: T5, cyCD73; assay: SPR, Biacore T200; binder captured on CM5 chip by human antibody capture kit, CD73 as analyte
T5 construct: Species told only by the prefix 'cy'
Protocol: as §1
(§2) Specifically, to analyze the binding affinities to hCD73, cyCD73, and mCD73, each of GI-108A1 (AHF10240), GI-108A1 (AHP04167), GI-108B1, and Oleclumab was diluted in HBS-EP+ buffer (Cytiva, USA) and reversibly immobilized on Sensor Chip CM5 (Cytiva, USA) using a human antibody capture kit (Cytiva, USA). CD73 was diluted in HBS-EP+ buffer and then analyzed for association and dissociation at a flow rate of 30 μL/min for 5 minutes each.

[5] = target: T2, hCD73; assay: as above
Protocol: as §1, §2

[6] = target: T4, mCD73; assay: as above
Protocol: as §1, §2

Row | Binder | IC50, inhibition of membrane-bound CD73 enzyme activity on MDA-MB-231 cells (adenosine assay) [1] | IC50, inhibition of soluble CD73 enzyme activity (AMP-Glo assay, recombinant human CD73) [2] | Kd [3] | Kd [4] | Kd [5] | Kd [6] | binding result [6]
1 | B1 | 5.58 nM | 0.102 nM | 2070 nM | 0.0708 nM | 0.088 nM | 3.45 nM | 
2 | B2 | 2.75 nM | 0.06 nM | 2500 nM | 0.0841 nM | 0.0502 nM | 2.62 nM | 
3 | B3 | 3.37 nM | 0.126 nM | 2290 nM | 0.113 nM | 0.0894 nM |  | no binding
